Experimental data taken from the supplement of paper PMC9233669.
Variants at the floor of the assay were thinned out.

Columns and labels:
biotinyl-Leu-oxazolone = test: self-aminoacylation, catalytic enhancement (BLO) (fold over background); higher = more active; k-Seq, kA / k0A0; sequences stand for … in GGGAAUGGAUCCACAUCUACGAAUUC…UUCACUGCAGACUUGACGAAGCUG
Outline: (§1)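 Mutagenized RNA pools with a 21-nt variable region (0.43 μM) were reacted with each biotinyl-aminoacyl-oxazolone at 2–1250 μM for 90 minutes at room temperature, in 50 μL HEPES/NaCl/KCl/MgCl2/CaCl2 buffer containing 5% acetonitrile at pH 6.9–7.0. RNA captured on streptavidin was quantified by triplicate qPCR and by Illumina sequencing. The fraction reacted for each sequence was fit to a pseudo-first-order model with bootstrapping, and catalytic enhancement is the median kA divided by the uncatalyzed rate, taken as the low-activity peak of a bimodal Gaussian fit.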

biotinyl-Val-oxazolone = test: self-aminoacylation, catalytic enhancement (BVO) (fold over background); higher = more active; k-Seq, kA / k0A0; sequences stand for … in GGGAAUGGAUCCACAUCUACGAAUUC…UUCACUGCAGACUUGACGAAGCUG
Outline: as §1

biotinyl-Ile-oxazolone = test: self-aminoacylation, catalytic enhancement (BIO) (fold over background); higher = more active; k-Seq, kA / k0A0; sequences stand for … in GGGAAUGGAUCCACAUCUACGAAUUC…UUCACUGCAGACUUGACGAAGCUG
Outline: as §1

biotinyl-Phe-oxazolone = test: self-aminoacylation, catalytic enhancement (BFO) (fold over background); higher = more active; k-Seq, kA / k0A0; sequences stand for … in GGGAAUGGAUCCACAUCUACGAAUUC…UUCACUGCAGACUUGACGAAGCUG
Outline: as §1

biotinyl-Trp-oxazolone = test: self-aminoacylation, catalytic enhancement (BWO) (fold over background); higher = more active; k-Seq, kA / k0A0; sequences stand for … in GGGAAUGGAUCCACAUCUACGAAUUC…UUCACUGCAGACUUGACGAAGCUG
Outline: as §1

biotinyl-Met-oxazolone = test: self-aminoacylation, catalytic enhancement (BMO) (fold over background); higher = more active; k-Seq, kA / k0A0; sequences stand for … in GGGAAUGGAUCCACAUCUACGAAUUC…UUCACUGCAGACUUGACGAAGCUG
Outline: as §1

| Sequence | self-aminoacylation (biotinyl-Leu-oxazolone) | self-aminoacylation (biotinyl-Val-oxazolone) | self-aminoacylation (biotinyl-Ile-oxazolone) | self-aminoacylation (biotinyl-Phe-oxazolone) | self-aminoacylation (biotinyl-Trp-oxazolone) | self-aminoacylation (biotinyl-Met-oxazolone) |
| --- | --- | --- | --- | --- | --- | --- |
| AAGUCUGCAAAUAGUCGCAAG [Fam3.1 aminoacylation ribozyme variant] | 0.891 | 0.671 | 0.902 | 1.15 | 1.22 | 0.888 |
| AAGUUUGGUAAUAGUCGCAAC [Fam3.1 aminoacylation ribozyme variant] | 1.16 | 1.47 | 1.48 | 2.86 | 1.84 | 1.19 |
| AUUCACCUAGUUCAUUGGGUG [Fam2.2 aminoacylation ribozyme variant] | 3.47 | 1.62 | 1.85 | 18.9 | 2.83 | 2.54 |
| CUUCACUUAGGUCAUCGGGUG [Fam2.2 aminoacylation ribozyme variant] | 5.55 | 2.8 | 2.82 | 23.4 | 5.12 | 4.3 |
| AAGUUUGGUAAUAGUCGGAAG [Fam3.1 aminoacylation ribozyme variant] | 0.717 | 0.815 | 0.893 | 1.11 | 1.08 | 0.771 |
| AUUUGCCUGGUCAUCGAGUGA [Fam2.1 aminoacylation ribozyme variant] | 8.2 | 4.54 | 4.47 | 13.1 | 9.16 | 8 |
| CGACUUCAAACAAUCGGUCUU [Fam1A.1 aminoacylation ribozyme variant] | 1.77 | 1.71 | 1.64 | 18.2 | 12.7 | 1.26 |
| AUUACCCUGGUCUUCGAGUGG [Fam2.1 aminoacylation ribozyme variant] | 1.69 | 1.07 | 0.992 | 4.91 | 0.855 | 1.34 |
| UAGUUUGCUAAAAGUCGCAAG [Fam3.1 aminoacylation ribozyme variant] | 1.57 | 1.6 | 1.53 | 3.92 | 3.43 | 1.93 |
| AUUCACCUACGUCCUCGGGUG [Fam2.2 aminoacylation ribozyme variant] | 7.17 | 2.12 | 2.7 | 33.2 | 4.21 | 4.71 |
| AUUCCCCUAGGUGAUCGGGUG [Fam2.2 aminoacylation ribozyme variant] | 11.8 | 7.89 | 7.9 | 47.7 | 10.8 | 10.9 |
| CUACAUCAAACAAUCGGUCUG [Fam1A.1 aminoacylation ribozyme variant] | 0.736 | 0.82 | 0.799 | 2.27 | 1.41 | 0.759 |
| CUACAUCAAACAAUCGGUCUU [Fam1A.1 aminoacylation ribozyme variant] | 0.615 | 0.748 | 0.69 | 1.45 | 1.25 | 0.791 |
| CUACUUCAAUCAAUCGGUUUG [Fam1A.1 aminoacylation ribozyme variant] | 1.21 | 0.96 | 0.895 | 26.6 | 15.1 | 0.886 |
| CAACUUAAAACAAUCGGUCUG [Fam1A.1 aminoacylation ribozyme variant] | 1.11 | 1.14 | 0.984 | 1.71 | 0.948 | 1.09 |
| AUUCGCCUAGGUCAUCGGGCG [Fam2.2 aminoacylation ribozyme variant] | 5.67 | 3.59 | 3.22 | 2.39 | 4.35 | 4.99 |
| AUUAACCUGGUCAUCGGGUGA [Fam2.1 aminoacylation ribozyme variant] | 9.83 | 4.72 | 4.26 | 53.1 | 11 | 8.87 |
| AUUAACCUAGGUCAUCGAGUG [Fam2.2 aminoacylation ribozyme variant] | 11.7 | 5.78 | 7.02 | 17.9 | 4.39 | 8.83 |
| AUCACCCUGGUCAUCGGGUGA [Fam2.1 aminoacylation ribozyme variant] | 9.48 | 5.27 | 5.17 | 33.4 | 14.1 | 9.05 |
| AUUACCCUCGUCCUCGAGUGA [Fam2.1 aminoacylation ribozyme variant] | 5.49 | 2.4 | 2.48 | 34.7 | 6.18 | 4.67 |
| AUUCCCCUAGGUCAUCGGGAG [Fam2.2 aminoacylation ribozyme variant] | 9.02 | 6.76 | 6.89 | 19.4 | 8.9 | 8.27 |
| CUACUUCAAACAUUCGGUCUA [Fam1A.1 aminoacylation ribozyme variant] | 0.766 | 1.02 | 1.03 | 0.783 | 0.89 | 0.882 |
| CCACACUUCAAGCAAUCUGCC [Fam1B.1 aminoacylation ribozyme variant] | 0.787 | 1.05 | 0.806 | 0.603 | 0.628 | 1.3 |
| CCACACUUCAGGCAAUCGGUU [Fam1B.1 aminoacylation ribozyme variant] | 2.13 | 1.98 | 1.68 | 6.44 | 2.37 | 2.24 |
| CUACUUCAAACAAUCGUUCGG [Fam1A.1 aminoacylation ribozyme variant] | 0.637 | 0.623 | 0.787 | 0.675 | 0.473 | 0.641 |
| CUACUUCAAACACUCAGUCUG [Fam1A.1 aminoacylation ribozyme variant] | 0.685 | 0.732 | 0.798 | 1.02 | 0.601 | 0.727 |
